According to PMC3641832:

What was measured:
[1] = target: cce_0566 from Cyanothece sp. ATCC 51142 (DUF269 family protein) (Cyanothece sp. ATCC 51142); assay: SEC
[2] = target: cce_0566 from Cyanothece sp. ATCC 51142 (DUF269 family protein) (Cyanothece sp. ATCC 51142); assay: NMR 15N relaxation
[3] = target: cce_0566 from Cyanothece sp. ATCC 51142 (DUF269 family protein) (Cyanothece sp. ATCC 51142); assay: crystal structure

- stoichiometry N [1]: 2
- stoichiometry N [2]: 2
- stoichiometry N [3]: 2
Substance: cce_0566 from Cyanothece sp. ATCC 51142 (DUF269 family protein) (natural protein)
